Laboratory results taken from patent US20130129763A1 (ARNE FORSGREN, published 2013).

How the values were obtained:
[1] = biological target: T1, methylamine-treated C3 (C3met) (human, UniProt P01024 23-667; P01024 672-1663); assay: SPR (Biacore 2000), UspA protein amine-coupled on CM5 chip, C3met injected, steady state affinity model; UspA1^50-770 on the chip
T1 construct: mature; also called C3b-like molecule; [125I]-C3met

[2] = biological target: T2, Engelbreth-Holm-Swarm mouse sarcoma laminin (Sigma) (mouse, UniProt P19137 25-3083; P02469 22-1786; P02468 34-1607); assay: ELISA: 40 nM UspA1 50-770 coated, soluble laminin titrated in three-fold steps 0.03-60 µg/ml, rabbit anti-laminin pAb + HRP anti-rabbit pAb
T2 construct: also called soluble laminin

T1 sequence (P01024 23-667 limits assumed, chain 1 of 2): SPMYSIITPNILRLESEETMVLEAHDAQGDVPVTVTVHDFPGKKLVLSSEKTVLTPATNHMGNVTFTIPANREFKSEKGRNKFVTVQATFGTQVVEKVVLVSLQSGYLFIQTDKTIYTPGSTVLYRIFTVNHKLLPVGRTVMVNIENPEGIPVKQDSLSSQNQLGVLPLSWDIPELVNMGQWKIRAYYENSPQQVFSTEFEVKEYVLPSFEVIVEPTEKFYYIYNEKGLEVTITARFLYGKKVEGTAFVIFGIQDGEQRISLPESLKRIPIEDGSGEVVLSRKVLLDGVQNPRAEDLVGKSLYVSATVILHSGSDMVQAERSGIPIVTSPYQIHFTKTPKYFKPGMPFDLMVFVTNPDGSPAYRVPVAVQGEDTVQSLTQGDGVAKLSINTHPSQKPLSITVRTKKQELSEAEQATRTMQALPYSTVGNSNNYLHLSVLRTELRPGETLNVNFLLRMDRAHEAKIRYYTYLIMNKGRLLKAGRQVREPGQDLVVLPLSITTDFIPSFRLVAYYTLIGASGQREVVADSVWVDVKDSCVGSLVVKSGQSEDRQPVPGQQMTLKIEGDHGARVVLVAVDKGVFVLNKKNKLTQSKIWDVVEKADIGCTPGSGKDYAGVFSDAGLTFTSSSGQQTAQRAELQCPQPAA
T1 sequence (P01024 672-1663 limits assumed, chain 2 of 2): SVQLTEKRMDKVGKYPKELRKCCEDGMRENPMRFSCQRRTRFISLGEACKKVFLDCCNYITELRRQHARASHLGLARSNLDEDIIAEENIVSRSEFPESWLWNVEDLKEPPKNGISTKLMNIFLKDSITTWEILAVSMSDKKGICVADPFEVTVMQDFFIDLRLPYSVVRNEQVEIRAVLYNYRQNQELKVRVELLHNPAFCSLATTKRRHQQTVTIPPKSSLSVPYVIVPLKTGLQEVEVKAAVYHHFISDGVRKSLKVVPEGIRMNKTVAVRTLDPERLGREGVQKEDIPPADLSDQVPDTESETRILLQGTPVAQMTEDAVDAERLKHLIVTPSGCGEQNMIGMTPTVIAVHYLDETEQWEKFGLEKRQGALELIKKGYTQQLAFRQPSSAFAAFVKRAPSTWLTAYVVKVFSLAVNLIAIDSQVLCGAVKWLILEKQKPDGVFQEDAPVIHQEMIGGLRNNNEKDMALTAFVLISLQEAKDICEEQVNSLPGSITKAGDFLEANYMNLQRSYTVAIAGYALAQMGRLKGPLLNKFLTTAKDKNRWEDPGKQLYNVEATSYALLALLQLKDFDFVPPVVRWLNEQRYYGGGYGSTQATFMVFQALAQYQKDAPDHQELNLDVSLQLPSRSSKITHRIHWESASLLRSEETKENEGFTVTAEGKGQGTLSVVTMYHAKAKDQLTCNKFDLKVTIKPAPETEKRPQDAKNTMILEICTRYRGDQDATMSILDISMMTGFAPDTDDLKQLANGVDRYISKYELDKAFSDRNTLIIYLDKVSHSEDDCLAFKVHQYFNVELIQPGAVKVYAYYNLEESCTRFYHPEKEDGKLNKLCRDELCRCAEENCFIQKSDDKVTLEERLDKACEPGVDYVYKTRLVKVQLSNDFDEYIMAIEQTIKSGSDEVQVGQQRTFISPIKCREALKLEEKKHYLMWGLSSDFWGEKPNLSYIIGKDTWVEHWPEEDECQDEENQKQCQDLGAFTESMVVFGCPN

B1: recombinant UspA1^50-770 (M. catarrhalis Bc5) (other)
chain: KVGKATNKISGGDNNTANGTYLTIGGGDYNKTKGRYSTIGGGLFNEATNEYSTIGSGGYNKAKGRYSTIGGGGYNEATNQYSTIGGGDNNTAKGRYSTIGGGGYNEATIENSTVGGGGYNQAKGRNSTVAGGYNNEATGTDSTIAGGRKNQATGKGSFAAGIDNKANADNAVALGNKNTIEGENSVAIGSNNTVKKGQQNVFILGSNTDTTNAQNGSVLLGHNTAGKAATIVNSAEVGGLSLTGFAGASKTGNGTVSVGKKGKERQIVHVGAGEISDTSTDAVNGSQLHVLATVVAQNKADIKDLDDEVGLLGEEINSLEGEIFNNQDAIAKNQADIKTLESNVEEGLLDLSGRLLDQKADIDNNINNIYELAQQQDQHSSDIKTLKNNVEEGLLDLSGRLIDQKADLTKDIKALESNVEEGLLDLSGRLIDQKADIAKNQADIAQNQTDIQDLAAYNELQDAYAKQQTEAIDALNKASSANTDRIATAELGIAENKKDAQIAKAQANENKDGIAKNQADIQLHDKKITNLGILHSMVARAVGNNTQGVATNKADIAKNQADIANNIKNIYELAQQQDQHSSDIKTLAKVSAANTDRIAKNKAEADASFETLTKNQNTLIEQGEALVEQNKAINQELEGFAAHADVQDKQILQNQADITTNKTAIEQNINRTVANGFEIEKNKAGIATNKQELILQNDRLNRINETNNHQDQKIDQLGYAL
notes: also called UspA1^56-770 [sic]; UspA1^50-7"
[1]
  Kd: 14 µM
[2]
  binding result: binds
